± gives the standard deviation of the averaged measurements.
Test: total protein half-life in vivo (active degradation + dilution); higher = more stable protein
[1] = E. coli NCM3722 delta-clpP delta-lon delta-hslV, growth: N-lim chemostat, doubling time 6 h
[2] = E. coli NCM3722 delta-clpP, growth: N-lim chemostat, doubling time 6 h
[3] = E. coli NCM3722 delta-hslV, growth: N-lim chemostat, doubling time 6 h
[4] = E. coli NCM3722 delta-lon, growth: N-lim chemostat, doubling time 6 h
[5] = wild type E. coli NCM3722, growth: C-lim chemostat, doubling time 3 h
[6] = wild type E. coli NCM3722, growth: C-lim chemostat, doubling time 6 h
[7] = wild type E. coli NCM3722, growth: C-lim chemostat, doubling time 12 h
[8] = wild type E. coli NCM3722, growth: N-lim chemostat, doubling time 6 h
[9] = wild type E. coli NCM3722, growth: N-lim chemostat, doubling time 12 h
[10] = wild type E. coli NCM3722, growth: P-lim chemostat, doubling time 6 h
[11] = wild type E. coli NCM3722, growth: P-lim chemostat, doubling time 12 h
[12] = E. coli NCM3722 delta-smpB, growth: N-lim chemostat, doubling time 6 h

Row | Sequence | total protein half-life in vivo [1] [h] | total protein half-life in vivo [2] [h] | total protein half-life in vivo [3] [h] | total protein half-life in vivo [4] [h] | total protein half-life in vivo [5] [h] | total protein half-life in vivo [6] [h] | total protein half-life in vivo [7] [h] | total protein half-life in vivo [8] [h] | total protein half-life in vivo [9] [h] | total protein half-life in vivo [10] [h] | total protein half-life in vivo [11] [h] | total protein half-life in vivo [12] [h]
1 | MHVKYLAGIVGAALLMAGCSSSNELSAAGQSVRIVDEQPGAECQLIGTATGKQSNWLSGQHGEEGGSMRGAANDLRNQAAAMGGNVIYGISSPSQGMLSSFVPTDSQIIGQVYKCPN [P0AF70] | 6.05 | 6.18 ± 0.3 | 6.86 | 6.39 | 3.19 ± 0.049 | 5.95 ± 0.4 | 10.7 ± 0.76 | 7.12 | 12.9 ± 0.69 | 6.01 ± 0.24 | 11.7 ± 0.94 | 
2 | MHVTLVEINVHEDKVDEFIEVFRQNHLGSVQEEGNLRFDVLQDPEVNSRFYIYEAYKDEDAVAFHKTTPHYKTCVAKLESLMTGPRKKRLFNGLMP | 4.55 ± 0.72 | 2.71 | > 8 | 3 ± 0.2 | 2.49 ± 0.49 | 3.66 ± 0.24 | 3.93 ± 0.26 | 2.69 | 4.86 |  |  | 
3 | MHYMKWIYPRRLRNQMILMAILMVIVPTLTIGYIVETEGRSAVLSEKEKKLSAVVNLLNQALGDRYDLYIDLPREERIRALNAELAPITENITHAFPGIGAGYYNKMLDAIITYAPSALYQNNVGVTIAADHPGREVMRTNTPLVYSGRQVRGDILNSMLPIERNGEILGYIWANELTEDIRRQAWKMDVRIIIVLTAGLLISLLLIVLFSRRLSANIDIITDGLSTLAQNIPTRLPQLPGEMGQISQSVNNLAQALRETRTLNDLIIENAADGVIAIDRQGDVTTMNPAAEVITGYQRHELVGQPYSMLFDNTQFYSPVLDTLEHGTEHVALEISFPGRDRTIELSVTTSRIHNTHGEMIGALVIFSDLTARKETQRRMAQAERLATLGELMAGVAHEVRNPLTAIRGYVQILRQQTSDPIHQEYLSVVLKEIDSINKVIQQLLEFSRPRHSQWQQVSLNALVEETLVLVQTAGVQARVDFISELDNELSPINADRELLKQVLLNILINAVQAISARGKIRIQTWQYSDSQQAISIEDNGCGIDLSLQKKIFDPFFTTKASGTGLGLALSQRIINAHQGDIRVASLPGYGATFTLILPINPQGNQTV | 6.89 |  |  |  | 3.09 ± 0.28 | 6.53 |  |  |  |  |  | 
4 | MHYQPKQDLLNDRIILVTGASDGIGREAAMTYARYGATVILLGRNEEKLRQVASHINEETGRQPQWFILDLLTCTSENCQQLAQRIAVNYPRLDGVLHNAGLLGDVCPMSEQNPQVWQDVMQVNVNATFMLTQALLPLLLKSDAGSLVFTSSSVGRQGRANWGAYAASKFATEGMMQVLADEYQQRLRVNCINPGGTRTAMRASAFPTEDPQKLKTPADIMPLYLWLMGDDSRRKTGMTFDAQPGRKPGISQ | 4.5 ± 0.46 | 4.29 ± 0.28 | 3.87 ± 0.11 | 4.56 ± 0.44 | 2.99 ± 0.043 | 5.77 ± 0.044 | 9.39 ± 1.9 | 3.68 ± 0.25 | 5.92 ± 0.058 | 6.22 ± 0.24 | 11.3 ± 0.24 | 3.62 ± 0.049
5 | MIAIADILQAGEKLTAVAPFLAGIQNEEQYTQALELVDHLLLNDPENPLLDLVCAKITAWEESAPEFAEFNAMAQAMPGGIAVIRTLMDQYGLTLSDLPEIGSKSMVSRVLSGKRKLTLEHAKKLATRFGISPALFID | 4.71 | 1.51 |  |  |  |  |  |  |  |  | 1.85 | 
6 | MIALIQRVTRASVTVEGEVTGEIGAGLLVLLGVEKDDDEQKANRLCERVLGYRIFSDAEGKMNLNVQQAGGSVLVVSQFTLAADTERGMRPSFSKGASPDRAEALYDYFVERCRQQEMNTQTGRFAADMQVSLVNDGPVTFWLQV [P0A6M4] | 4.67 ± 0.29 | 3.81 ± 0.19 | 3.859 ± 0.026 | 4.26 ± 0.52 |  | 5.48 ± 0.15 | 10 ± 0.87 | 3.84 ± 0.29 | 6.66 ± 0.43 | 5.52 ± 0.24 | 11 ± 0.22 | 4.06 ± 0.17
7 | MIASKFGIGQQVRHSLLGYLGVVVDIDPVYSLSEPSPDELAVNDELRAAPWYHVVMEDDNGLPVHTYLAEAQLSSELQDEHPEQPSMDELAQTIRKQLQAPRLRN [P0AB20] | 3.23 ± 0.48 |  |  | 1.99 ± 0.27 |  |  |  |  |  |  |  | 
8 | MIDDDGYRPNVGIVICNRQGQVMWARRFGQHSWQFPQGGINPGESAEQAMYRELFEEVGLSRKDVRILASTRNWLRYKLPKRLVRWDTKPVCIGQKQKWFLLQLVSGDAEINMQTSSTPEFDGWRWVSYWYPVRQVVSFKRDVYRRVMKEFASVVMSLQENTPKPQNASAYRRKRG [P0A776] | 5.67 ± 0.079 | 5.62 ± 0.48 | 6.81 ± 1.3 | 6.4 ± 0.12 |  | 5.48 ± 0.44 | 9.01 ± 3.2 | 4.84 ± 0.076 | 11.9 ± 3.9 |  | 9.25 ± 0.6 | 5.02 ± 0.73
9 | MIDLYFAPTPNGHKITLFLEEAELDYRLIKVDLGKGGQFRPEFLRISPNNKIPAIVDHSPADGGEPLSLFESGAILLYLAEKTGLFLSHETRERAATLQWLFWQVGGLGPMLGQNHHFNHAAPQTIPYAIERYQVETQRLYHVLNKRLENSPWLGGENYSIADIACWPWVNAWTRQRIDLAMYPAVKNWHERIRSRPATGQALLKAQLGDERSDS |  | 4.37 ± 1.4 | 4.61 ± 1.6 | 4.28 ± 0.48 | 3.27 ± 0.89 | 4.84 ± 0.4 | 9.73 ± 0.75 | 4.02 ± 1.1 | 6.01 ± 0.55 | 5.6483 ± 0.0048 | 11.48 ± 0.07 | 2.94 ± 1.1
